Changes are numbered by the printed parent chain.
B1: β48Y-H: B13.14.1 TCR Vβ point mutant (protein)
TCR alpha: AQSVAQPEDQVNVAEGNPLTVKCTYSVSGNPYLFWYVQYPNRGLQFLLKYITGDNLVKGSYGFEAEFNKSQTSFHLKKPSALVSDSALYFCAVRDGRGGGNKLTFGTGTQLKVEL
TCR beta: GITQSPKYLFRKEGQNVTLSCEQNLNHDAMYWYRQDPGQGLRLIYHSQIVNDFQKGDIAEGYSVSREKKESFPLTVTSAQKNPTAFYLCASSPGQRDNSPLHFGNGTRLTVT
B2: β48Y-W: B13.14.1 TCR Vβ point mutant (protein)
TCR alpha: B1 TCR alpha
TCR beta: B1 TCR beta with H46W
B3: β51I-F: B13.14.1 TCR Vβ point mutant (protein)
TCR alpha: B1 TCR alpha
TCR beta: B1 TCR beta with H46Y, I49F
B4: β48Y-L: B13.14.1 TCR Vβ point mutant (protein)
TCR alpha: B1 TCR alpha
TCR beta: B1 TCR beta with H46L
B5: β51I-S: B13.14.1 TCR Vβ point mutant (protein)
TCR alpha: B1 TCR alpha
TCR beta: B1 TCR beta with H46Y, I49S
B6: β48Y-K: B13.14.1 TCR Vβ point mutant (protein)
TCR alpha: B1 TCR alpha
TCR beta: B1 TCR beta with H46K
B7: β51I-E: B13.14.1 TCR Vβ point mutant (protein)
TCR alpha: B1 TCR alpha
TCR beta: B1 TCR beta with H46Y, I49E
B8: α32Y-F: B13.14.1 TCR Vα point mutant (protein)
TCR alpha: B1 TCR alpha with Y32F
TCR beta: B1 TCR beta with H46Y
B9: β51I-M: B13.14.1 TCR Vβ point mutant (protein)
TCR alpha: B1 TCR alpha
TCR beta: B1 TCR beta with H46Y, I49M
B10: β48Y-Q: B13.14.1 TCR Vβ point mutant (protein)
TCR alpha: B1 TCR alpha
TCR beta: B1 TCR beta with H46Q
B11: β51I-Q: B13.14.1 TCR Vβ point mutant (protein)
TCR alpha: B1 TCR alpha
TCR beta: B1 TCR beta with H46Y, I49Q
B12: β51I-K: B13.14.1 TCR Vβ point mutant (protein)
TCR alpha: B1 TCR alpha
TCR beta: B1 TCR beta with H46Y, I49K
B13: β51I-R: B13.14.1 TCR Vβ point mutant (protein)
TCR alpha: B1 TCR alpha
TCR beta: B1 TCR beta with H46Y, I49R
B14: β48Y-V: B13.14.1 TCR Vβ point mutant (protein)
TCR alpha: B1 TCR alpha
TCR beta: B1 TCR beta with H46V
B15: α32Y-E: B13.14.1 TCR Vα point mutant (protein)
TCR alpha: B1 TCR alpha with Y32E
TCR beta: B1 TCR beta with H46Y
B16: β51I-W: B13.14.1 TCR Vβ point mutant (protein)
TCR alpha: B1 TCR alpha
TCR beta: B1 TCR beta with H46Y, I49W
B17: β48Y-T: B13.14.1 TCR Vβ point mutant (protein)
TCR alpha: B1 TCR alpha
TCR beta: B1 TCR beta with H46T
B18: β48Y-I: B13.14.1 TCR Vβ point mutant (protein)
TCR alpha: B1 TCR alpha
TCR beta: B1 TCR beta with H46I
B19: β51I-H: B13.14.1 TCR Vβ point mutant (protein)
TCR alpha: B1 TCR alpha
TCR beta: B1 TCR beta with H46Y, I49H
B20: β51I-G: B13.14.1 TCR Vβ point mutant (protein)
TCR alpha: B1 TCR alpha
TCR beta: B1 TCR beta with H46Y, I49G
B21: β51I-D: B13.14.1 TCR Vβ point mutant (protein)
TCR alpha: B1 TCR alpha
TCR beta: B1 TCR beta with H46Y, I49D
B22: β51I-T: B13.14.1 TCR Vβ point mutant (protein)
TCR alpha: B1 TCR alpha
TCR beta: B1 TCR beta with H46Y, I49T
B23: β48Y-N: B13.14.1 TCR Vβ point mutant (protein)
TCR alpha: B1 TCR alpha
TCR beta: B1 TCR beta with H46N
B24: β48Y-R: B13.14.1 TCR Vβ point mutant (protein)
TCR alpha: B1 TCR alpha
TCR beta: B1 TCR beta with H46R
B25: β51I-L: B13.14.1 TCR Vβ point mutant (protein)
TCR alpha: B1 TCR alpha
TCR beta: B1 TCR beta with H46Y, I49L
B26: β48Y-S: B13.14.1 TCR Vβ point mutant (protein)
TCR alpha: B1 TCR alpha
TCR beta: B1 TCR beta with H46S
B27: β51I-A: B13.14.1 TCR Vβ point mutant (protein)
TCR alpha: B1 TCR alpha
TCR beta: B1 TCR beta with H46Y, I49A
B28: β51I-V: B13.14.1 TCR Vβ point mutant (protein)
TCR alpha: B1 TCR alpha
TCR beta: B1 TCR beta with H46Y, I49V
B29: β51I-Y: B13.14.1 TCR Vβ point mutant (protein)
TCR alpha: B1 TCR alpha
TCR beta: B1 TCR beta with H46Y, I49Y
B30: α32Y-A: B13.14.1 TCR Vα point mutant (protein)
TCR alpha: B1 TCR alpha with Y32A
TCR beta: B1 TCR beta with H46Y
B31: β51I-P: B13.14.1 TCR Vβ point mutant (protein)
TCR alpha: B1 TCR alpha
TCR beta: B1 TCR beta with H46Y, I49P
B32: β48Y-P: B13.14.1 TCR Vβ point mutant (protein)
TCR alpha: B1 TCR alpha
TCR beta: B1 TCR beta with H46P

Target: T1, KRAS-G12V antigen (RAS G12V-T15 peptide) (Homo sapiens, UniProt P01116, G12V)
T1 construct: endogenous in cells; host or cells: patient B13 autologous LCL cells (endogenous HLA-DP); the peptide is synthetic
Assay: TCR mutant screening in Jurkat-NFAT-Luc cells with antigen-loaded B13 LCL cells (ONE Glo Luciferase)
Assay type: cell-based
Conditions: MHC-II binding region mutants; ratio to wild-type B13.14.1 TCR; 16-24 hours
Experimental: According to the table below, point mutations were performed on the Vα and Vβ of B13.14.1 TCR (including CDR3 region and […]), and a lentiviral vector shuttle plasmid encoding the TCR mutant was constructed, packaged with the standard lentiviral vector in 293T cells, and B13.14.1TCR mutant were subjected to function screening.
The TCR mutant (CDR3 region) lentiviral vector was transduced into Jurkat-NFAT-Luc cell line, and B13 LCL cells loaded with KRAS-G12V antigen (RAS G12V-T15 peptide, SEQ ID NO: 5) were used as antigen-presenting cells. 2×10^4 TCR-T and 2×10^4 antigen-loaded B13 LCL cells were co-cultured for 16-24 hours, and added with ONE Glo Luciferase to detect the expression of fluorescent signal, and the TCR Mut RLU/WT RLU (ratio of RLU signal value of TCR mutant to RLU signal value of wild-type B13.14.1 TCR) was calculated.
The TCR mutant (MHC-II binding region) lentiviral vector was transduced into the Jurkat-NFAT-Luc cell line, and B13 LCL cells loaded with KRAS-G12V antigen (RAS G12V-T15 peptide, SEQ ID NO: 5) were used as the antigen-presenting cells. 2×10^4 TCR-T and 2×10^4 antigen-loaded B13 LCL cells were co-cultured for 16-24 hours, the fluorescence signal expression was detected by adding ONE Glo Luciferase, and TCR Mut RLU/WT RLU (ratio of RLU signal value of TCR mutant to RLU signal value of wild-type B13.14.1TCR) was calculated.

TCR Mut RLU/WT RLU [%]	Molecule
11.40	B1
32.62	B2
32.79	B3
37.97	B4
21.00	B5
83.49	B6
6.28	B7
3.81	B8
26.84	B9
42.56	B10
12.98	B11
3.82	B12
9.90	B13
63.15	B14
4.59	B15
22.56	B16

TCR Mut RLU/WT RLU [%]	Molecule
40.26	B17
34.66	B18
34.95	B19
5.49	B20
4.56	B21
88.58	B22
42.82	B23
62.60	B24
25.46	B25
34.02	B26
27.57	B27
35.46	B28
19.64	B29
4.68	B30
19.95	B31
36.89	B32

Source: patent US20240000834A1, “RAS MUTANT EPITOPE PEPTIDE AND T CELL RECEPTOR RECOGNIZING RAS MUTANT” (SHANGHAI GENBASE BIOTECHNOLOGY CO., LTD., priority 2020, published 2024)
